The record followed here is patent US20090186337A1 (INSTITUT NATIONAL DE LA RECHERCHE AGRONOMIQUE INRA, published 2009).

Test [1] deals with T1, N protein of the measles virus (measles virus strain Edmonston B, UniProt P0DXN6 1-525).
T1 sequence: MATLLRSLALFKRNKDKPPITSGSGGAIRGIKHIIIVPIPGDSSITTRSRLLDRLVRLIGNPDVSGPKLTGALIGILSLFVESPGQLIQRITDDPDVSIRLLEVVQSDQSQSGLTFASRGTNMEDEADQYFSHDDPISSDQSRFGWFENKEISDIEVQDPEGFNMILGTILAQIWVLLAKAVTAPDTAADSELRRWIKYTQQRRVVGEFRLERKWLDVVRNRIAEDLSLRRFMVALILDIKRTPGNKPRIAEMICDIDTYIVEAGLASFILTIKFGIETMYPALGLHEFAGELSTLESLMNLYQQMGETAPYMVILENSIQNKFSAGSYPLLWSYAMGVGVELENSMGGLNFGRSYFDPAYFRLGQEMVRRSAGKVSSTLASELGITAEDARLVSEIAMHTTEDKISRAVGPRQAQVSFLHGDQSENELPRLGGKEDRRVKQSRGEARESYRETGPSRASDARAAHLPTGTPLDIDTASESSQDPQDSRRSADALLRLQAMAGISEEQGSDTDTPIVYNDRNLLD
In words: coexpression in E. coli and copurification of N with the P fragment.

For test [2], the target named is T2, N protein (nucleocapsid protein) of human RSV Long strain (human RSV Long strain, UniProt P03418 1-391).
T2 construct: also called native N protein
The experiment in a line: coexpression in E. coli, copurification of N with the P fragment.

The target of test [3] is N protein deleted of 27 residues at the C-terminal end (human RSV Long strain, UniProt P03418 1-364). In words: interaction of truncated N with P (method not detailed).

B1: P protein of the measles virus deleted of its N-terminal part as far as residue 456 (inclusive) (other)
chain: GPASRSVIRSIIKSSRLEEDRKRYLMTLLDDIKGANDLAKFHQMLMKIIMK
notes: also called PΔ457N
Consider B1, for which the binding result in test [1] is listed as “no binding”.

B2: protein P (fragment 161-241) fused to GST (other)
chain: SARDGIRDAMVGLREEMIEKIRTEALMTNDRLEAMARLRNEESEKMAKDTSDEVSLNPTSEKLNNLLEGNDSDNDLSLEDF
notes: not shown: GST carrier at the N end (from pGEX-4T-3) and the vector-encoded junction with the thrombin site
Consider B2, for which the binding result in test [2] is recorded as “binds”.

B3: P protein (phosphoprotein) of human RSV Long strain (other)
chain: SARDGIRDAMVGLREEMIEKIRTEALMTNDRLEAMARLRNEESEKMAKDTSDEVSLNPTSEKLNNLLEGNDSDNDLSLEDF
For the molecule B3, the binding result in test [3] is “no binding”.
